The target of the assay is Ggly receptor on IMGE-5 cells. The experiment in a line: cell-based or functional assay.

The results in this text go back to US20070031511A1, “Method of treatment” (priority 2003, published 2007).

pentapeptide E5 displayed an ED50 (nM), proliferation of IMGE cells, thymidine uptake of 1.4 nM.
